Experimental data from PMC10091538, “The H2TH-like motif of the Escherichia coli multifunctional protein KsgA is required for DNA binding involved in DNA repair and the suppression of mutation frequencies”.

T1: His-KsgA (1-273) (Escherichia coli, UniProt P06992 1-273)
T1 sequence: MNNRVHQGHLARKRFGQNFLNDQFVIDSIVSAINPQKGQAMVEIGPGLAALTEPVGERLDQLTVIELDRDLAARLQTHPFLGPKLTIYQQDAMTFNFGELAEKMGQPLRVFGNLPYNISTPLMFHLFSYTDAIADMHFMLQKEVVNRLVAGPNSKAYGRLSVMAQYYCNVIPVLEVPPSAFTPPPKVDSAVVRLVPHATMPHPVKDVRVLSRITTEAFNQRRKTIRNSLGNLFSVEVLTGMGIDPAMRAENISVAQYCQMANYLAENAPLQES

T2: His-KsgA (1-213) (Escherichia coli, UniProt P06992 1-213, del214-273)
T2 sequence: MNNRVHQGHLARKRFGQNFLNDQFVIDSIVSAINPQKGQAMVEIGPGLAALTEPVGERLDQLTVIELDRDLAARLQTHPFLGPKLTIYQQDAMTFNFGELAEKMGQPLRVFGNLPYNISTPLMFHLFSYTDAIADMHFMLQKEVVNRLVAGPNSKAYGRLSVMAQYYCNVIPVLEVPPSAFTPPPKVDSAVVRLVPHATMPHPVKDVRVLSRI

T3: His-KsgA (9-273) (Escherichia coli, UniProt P06992 9-273, del1-8)
T3 sequence: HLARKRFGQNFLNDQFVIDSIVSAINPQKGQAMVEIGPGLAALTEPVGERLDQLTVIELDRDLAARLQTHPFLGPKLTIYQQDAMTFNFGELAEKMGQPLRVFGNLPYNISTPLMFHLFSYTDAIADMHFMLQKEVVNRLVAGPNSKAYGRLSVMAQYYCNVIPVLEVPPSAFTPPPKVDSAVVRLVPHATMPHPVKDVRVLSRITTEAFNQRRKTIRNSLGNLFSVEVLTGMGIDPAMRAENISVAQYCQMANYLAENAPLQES

B1: 5-ohC/T duplex (dsDNA)
DNA 1: GAACTAGTGCATCCCCCGGGCTGC
DNA 2: GCAGCCCGGGGGATTCACTAGTTC
modifications: 5-hydroxycytosine (5-ohC) opposite T
B2: Tg/C duplex (dsDNA)
DNA 1: GCTGCCCGGGGGTTCCTCTTGTTC
DNA 2: GAACAAGAGTAACCCCCGGGCAGC
modifications: thymine glycol (Tg) opposite C
B3: 5-ohC/G duplex (dsDNA)
DNA 1: GAACTAGTGCATCCCCCGGGCTGC
DNA 2: GCAGCCCGGGGGATGCACTAGTTC
modifications: 5-hydroxycytosine (5-ohC) opposite G
B4: 5-foU/C duplex (dsDNA)
DNA 1: GGTACCTTCAGTCGACC
DNA 2: GGTCGACTUAAGGTACC
modifications: 5-formyluracil (5-foU) opposite C
B5: 5-ohC/A duplex (dsDNA)
DNA 1: GAACTAGTGCATCCCCCGGGCTGC
DNA 2: GCAGCCCGGGGGATACACTAGTTC
modifications: 5-hydroxycytosine (5-ohC) opposite A
B6: 5-ohC/C duplex (dsDNA)
DNA 1: GAACTAGTGCATCCCCCGGGCTGC
DNA 2: GCAGCCCGGGGGATCCACTAGTTC
modifications: 5-hydroxycytosine (5-ohC) opposite C

Biological target: T1, His-KsgA (1-273)
Assay: EMSA; 100 pmol protein, 10 fmol DNA, 500 ng calf thymus DNA; EMSA, 10 ul, 4 C, 60 min: 25 mM Tris-HCl pH 8.0, 500 uM DTT, 500 uM EDTA, 10% glycerol, 25 mM NaCl, 25 mM KCl, 10 uM ZnCl2, 125 uM each dNTP, 4 mM spermidine, 500 ng calf thymus DNA, 10 fmol 32P-dsDNA, 100 pmol protein; 12% PAGE
Details: protein: recombinant; tags: His (pET21a(+), BamHI/XhoI); label: 5'-32P

Row | Binder | binding result
1 | B1 | binds
2 | B2 | binds
3 | B3 | binds
4 | B4 | binds
5 | B5 | binds
6 | B6 | binds

Biological target: T2, His-KsgA (1-213)
Assay: as above
Details: protein: recombinant; tags: His (pET21a(+), BamHI/XhoI); label: 5'-32P

Row | Binder | binding result
7 | B1 | no binding
8 | B2 | no binding
9 | B3 | no binding
10 | B5 | no binding
11 | B6 | no binding

Biological target: T3, His-KsgA (9-273)
Assay: as above
Details: protein: recombinant; tags: His (pET21a(+), BamHI/XhoI); label: 5'-32P

Row | Binder | binding result
12 | B1 | binds
13 | B2 | binds
14 | B3 | binds
15 | B4 | binds
16 | B5 | binds
17 | B6 | binds
